Results as given in the supplement of paper PMC10567573.

B1: PTPRD (parent)
chain: ELDELLKEISRKRRSIRYGREVEL
B2: CHCHD3 (parent)
chain: YSGAYGASVSDEELKRRVAEELAL

Variants of: B1
Assay: protein stability index of a GFP-peptide fusion (GPS, HEK-293T) (PSI 1-6); higher = more stable
Settings: c terminus: a fixed tail appended
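Also: lentivirally expressed fusions sorted by FACS into six bins by GFP to DsRed ratio, PSI derived from sequencing read proportions per bin multiplied by bin number.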

Protein stability index: each site, then its substitutions
K7: N 2.16; Y 2.77; L 2.72
L2: P 3.47; C 3.06; G 3.58; Q 4.26; N 4.2; M 2.92; T 3.38; R 3.71
R17: W 1.85; F 1.63; G 2.19; S 2.44; D 3.33; H 2.06
E21: D 1.79
D3: Y 2.12; E 2.51; M 1.65; H 2.48; G 1.67
I16: F 1.81; R 1.72; A 1.9
S15: Y 2.65; W 1.59; F 2.27; H 2.89; N 2.65
E4: G 3.34; Q 1.99; Y 1.27; V 1.94; D 2.07
R13: H 2.14; Y 1.43; D 4.49
Y18: P 2.78; E 2.96; T 2.17; G 2.51
L5: I 2.45; V 2.86; N 2.69; E 4.15; K 3.61; M 3.25
R14: C 2.19
R20: V 1.8; G 2.23; Q 2.42
R11: T 3.21; Y 2.62; G 2.01; S 2.49
E8: Y 1.88; G 2.86; P 2.77
E23: L 2.85; P 2.56; H 2.51; F 2.05; S 2.47; K 1.74; T 2.34; M 2.08
L6: T 3.92; A 3.65; Y 2.71; W 1.5; F 2.07; D 4.29; S 3.98
L24: P 2.89; I 2.42; C 2.38; A 2.69; H 2.91; G 2.5
V22: M 2.85; A 1.82; C 2.29; H 2.88; S 2.79; E 3.18; F 2.22
E1: K 2.26; G 2.52; Q 2.41; N 2.56; V 1.93
I9: D 3.98; W 2.89; Q 4.18; C 2.54; N 3.35
K12: T 2.56; W 1.66; Q 1.81; I 1.66; D 2.39; P 2.53
G19: R 1.96; E 2.71; V 3.13; K 2.06
S10: G 2.44; R 2.48; W 1.48; A 2.44; I 2.09; K 2.17; P 3.01

Variants of: B2
Assay: as above
Settings: c terminus: a fixed tail appended

Protein stability index: each site, then its substitutions
V9: M 2.7; K 2.57; R 2.19; W 2.71; Q 3.18; F 2.67; A 3.3; H 2.77; Y 1.94; I 2.95; E 4.28; N 3.35; T 2.19; S 3.07; G 3.06; P 3.13
Y5: R 4.59; W 2.4; Q 5.28; A 5.09; N 4.55; I 4.44; G 4.92; L 4.86; V 4.95; F 1.33; M 3.73; P 4.88; D 5.3; T 5.01; K 4.14; S 4.99; E 5.32; H 4.02; C 2.75
A7: K 2.38; I 2.71; H 2.98; S 3.48; V 2.56; D 4.27; N 3.61; G 3.43; F 2.58; P 2.94; C 1.72; Y 2.61; E 4.3; W 1.39; Q 3.04; L 2.42; R 2.77; T 2.99; M 2.94
E12: C 2.2; I 2.92; N 2.4; Q 2.09; F 2.09; Y 3.02; A 2.29; L 2.17; V 2.37; H 2.24; K 2.53; G 1.82; T 2.71; R 2.59; D 2.99; S 2.09; M 2.39; P 3.73; W 3.11
G3: M 3.81; N 4.18; W 2.63; F 3.05; Q 3.96; Y 3.4; C 2.73; S 3.37; D 5.41; R 3.56; E 4.87; H 4.1; P 3.78; L 4.33; I 4.29; T 2.9; K 3.17; V 3.98; A 2.94
G6: K 2.06; H 2.3; C 2.22; W 1.64; I 2.12; M 2.4; V 2.48; L 2.06; D 4.67; A 1.84; T 2.11; N 3.36; Y 1.9; S 2.13; F 2.09; E 4.05; Q 2.81; P 2.48; R 2.42
S2: V 1.9; E 4.78; K 4.35; C 2.48; H 1.38; R 4.62; G 3.62; P 3.22; W 4.26; N 3.63; M 3.24; L 2.88; Y 4.05; T 2.27; Q 3.46; I 2.17; D 5.1; F 3.45
S8: F 2; E 3.77; T 2.01; W 4.28; I 2.08; Q 3.02; G 3.1; C 2.04; H 2.98; P 2.07; N 3.22; L 1.42; D 4.18; R 2.88; K 3.2; Y 2.07; V 1.78; M 3.52
S10: E 3.58; W 1.89; N 2.4; H 2.98; K 2.46; Y 2.14; M 2.86; L 2.8; G 2.51; I 2.69; P 2.6; R 2.66; T 2.71; V 2.92; Q 2.72; D 3.35; F 2.64
Y1: G 4.87; I 4.74; R 4.63; M 5.2; D 5.4; K 3.73; C 3.63; F 2.71; N 4.71; L 4.87; Q 5.07; A 4.93; H 4.99; S 5.45; T 4.34
D11: S 1.86; K 2.49; Q 2.34; N 2.37; L 2.57; F 2.27; V 3.23; C 2.39; I 2.29; W 2.31; M 3.01; H 2.08; P 1.7; T 2.24; E 1.55; R 2.24; G 2.01; A 2.79
E13: C 2.33; A 2.61; D 2.9
A4: I 3.21; W 2.11; M 2.59; Q 2.61; V 3.03; S 3.39; Y 2.15; C 2.64; D 4.64; P 4.24; H 2.84; G 2.27; N 2.97; E 3.31; L 2.7; R 3.03; F 1.95; K 2.63; T 3.66
